Measurements reported in patent publication US20120114557A1 (published 2012).
Bridge positions count the residues as written; N and C are the ends. Primed or numbered codes have the meaning given here. Side chains are listed from the residue outwards. Ends that are not written are not given here. Gd^T″ = GdDTPA-thiourea; Gd^ = not defined here

B1: SEQ ID NO: 67 (peptide)
peptide: GWSCHSMDMQWHCDFS
modifications: disulfide 4-13 (inferred)
notes: also called TN-10 peptide
B2: Compound ID 837 (peptide)
peptide: {Gd^T″}-GQWTCSGDEYTWHCNYE-{GTE}
modifications: disulfide 5-14 (inferred)
notes: also called Comp ID NO; 837
B3: SEQ ID NO: 108 (peptide)
peptide: YHACYQAGCYIY
modifications: disulfide 4-9 (inferred)
notes: also called TN-6 peptide
B4: Compound ID 864 (peptide)
peptide: {Gd^}-TGQWHCTTRFPHHYCLYG
modifications: not fully specified (some residues, bridges); printed as Gd^T.G.Q.W.H.C.T.T.R.F.P.H.H.y.C.L.Y.G; reading uncertain; also: series closure stated: disulfide
notes: also called Comp ID NO; 864
B5: Compound ID 966 (peptide)
peptide: {Gd^T″}-GK([Gly-Gd^T″])WHCTTLFPHHVCLYG
modifications: disulfide 5-14 (inferred)
notes: also called Comp ID NO; 966
B6: SEQ ID NO: 66 (peptide)
peptide: RWSCVLDADGWVCSDN
modifications: disulfide 4-13 (inferred)
notes: also called TN-10 peptide
B7: SEQ ID NO: 98 (peptide)
peptide: WQVCADSPGVITYCYTY
modifications: disulfide 4-14 (inferred)
notes: also called TN-11 peptide
B8: SEQ ID NO: 77 (peptide)
peptide: GWQCQGTDSLDWKCLYM
modifications: disulfide 4-14 (inferred)
notes: also called TN-11 peptide
B9: SEQ ID NO: 75 (peptide)
peptide: ERNCVLNDFRWTCGGD
modifications: disulfide 4-13 (inferred)
notes: also called TN-10 peptide
B10: SEQ ID NO: 68 (peptide)
peptide: SWHCFLENHHWMCSDH
modifications: disulfide 4-13 (inferred)
notes: also called TN-10 peptide
B11: SEQ ID NO: 80 (peptide)
peptide: SWYCNNGSYGQWHCEHR
modifications: disulfide 4-14 (inferred)
notes: also called TN-11 peptide
B12: SEQ ID NO: 8 (peptide)
peptide: GWQCFGASDWHCTWV
modifications: disulfide 4-12
notes: also called TN-9 peptide

Columns and labels:
human collagen type I [1] = biological target: T1, human collagen type I (human, UniProt P02452 162-1218; P08123 80-1119); assay: dried collagen assay, 5 uM peptide
T1 construct: biotinylated collagen I in the phage ELISA; also called dried human collagen; Collagen I
T1 sequence (P02452 162-1218 limits assumed, chain 1 of 2): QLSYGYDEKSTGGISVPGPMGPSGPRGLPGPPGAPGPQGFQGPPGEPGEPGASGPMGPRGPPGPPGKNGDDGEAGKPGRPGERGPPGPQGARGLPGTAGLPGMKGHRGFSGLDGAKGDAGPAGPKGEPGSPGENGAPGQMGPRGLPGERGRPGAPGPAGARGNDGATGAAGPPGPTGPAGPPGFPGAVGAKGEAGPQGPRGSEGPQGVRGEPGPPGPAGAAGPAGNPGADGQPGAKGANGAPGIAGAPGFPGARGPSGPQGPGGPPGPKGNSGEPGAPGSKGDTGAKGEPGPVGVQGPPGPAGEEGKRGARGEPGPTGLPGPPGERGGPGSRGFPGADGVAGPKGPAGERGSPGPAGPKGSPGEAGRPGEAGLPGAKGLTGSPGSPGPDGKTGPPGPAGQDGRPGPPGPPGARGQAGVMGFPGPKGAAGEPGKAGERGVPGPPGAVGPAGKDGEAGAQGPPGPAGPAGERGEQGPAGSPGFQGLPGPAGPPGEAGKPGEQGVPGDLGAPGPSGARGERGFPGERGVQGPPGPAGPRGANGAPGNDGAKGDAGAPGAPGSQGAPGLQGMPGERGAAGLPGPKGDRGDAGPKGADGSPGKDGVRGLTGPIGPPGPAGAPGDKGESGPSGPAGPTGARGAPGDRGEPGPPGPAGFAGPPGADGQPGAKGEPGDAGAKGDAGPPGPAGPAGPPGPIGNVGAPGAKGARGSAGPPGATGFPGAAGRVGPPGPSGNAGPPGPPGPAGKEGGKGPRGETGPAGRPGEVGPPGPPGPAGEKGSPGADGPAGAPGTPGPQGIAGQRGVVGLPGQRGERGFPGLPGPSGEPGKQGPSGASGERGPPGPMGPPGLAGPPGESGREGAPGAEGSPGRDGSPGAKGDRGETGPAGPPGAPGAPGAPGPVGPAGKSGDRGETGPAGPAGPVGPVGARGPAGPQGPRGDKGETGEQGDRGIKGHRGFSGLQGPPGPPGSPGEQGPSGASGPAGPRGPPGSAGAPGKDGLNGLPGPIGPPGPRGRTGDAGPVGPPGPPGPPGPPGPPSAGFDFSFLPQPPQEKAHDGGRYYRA
T1 sequence (P08123 80-1119 limits assumed, chain 2 of 2): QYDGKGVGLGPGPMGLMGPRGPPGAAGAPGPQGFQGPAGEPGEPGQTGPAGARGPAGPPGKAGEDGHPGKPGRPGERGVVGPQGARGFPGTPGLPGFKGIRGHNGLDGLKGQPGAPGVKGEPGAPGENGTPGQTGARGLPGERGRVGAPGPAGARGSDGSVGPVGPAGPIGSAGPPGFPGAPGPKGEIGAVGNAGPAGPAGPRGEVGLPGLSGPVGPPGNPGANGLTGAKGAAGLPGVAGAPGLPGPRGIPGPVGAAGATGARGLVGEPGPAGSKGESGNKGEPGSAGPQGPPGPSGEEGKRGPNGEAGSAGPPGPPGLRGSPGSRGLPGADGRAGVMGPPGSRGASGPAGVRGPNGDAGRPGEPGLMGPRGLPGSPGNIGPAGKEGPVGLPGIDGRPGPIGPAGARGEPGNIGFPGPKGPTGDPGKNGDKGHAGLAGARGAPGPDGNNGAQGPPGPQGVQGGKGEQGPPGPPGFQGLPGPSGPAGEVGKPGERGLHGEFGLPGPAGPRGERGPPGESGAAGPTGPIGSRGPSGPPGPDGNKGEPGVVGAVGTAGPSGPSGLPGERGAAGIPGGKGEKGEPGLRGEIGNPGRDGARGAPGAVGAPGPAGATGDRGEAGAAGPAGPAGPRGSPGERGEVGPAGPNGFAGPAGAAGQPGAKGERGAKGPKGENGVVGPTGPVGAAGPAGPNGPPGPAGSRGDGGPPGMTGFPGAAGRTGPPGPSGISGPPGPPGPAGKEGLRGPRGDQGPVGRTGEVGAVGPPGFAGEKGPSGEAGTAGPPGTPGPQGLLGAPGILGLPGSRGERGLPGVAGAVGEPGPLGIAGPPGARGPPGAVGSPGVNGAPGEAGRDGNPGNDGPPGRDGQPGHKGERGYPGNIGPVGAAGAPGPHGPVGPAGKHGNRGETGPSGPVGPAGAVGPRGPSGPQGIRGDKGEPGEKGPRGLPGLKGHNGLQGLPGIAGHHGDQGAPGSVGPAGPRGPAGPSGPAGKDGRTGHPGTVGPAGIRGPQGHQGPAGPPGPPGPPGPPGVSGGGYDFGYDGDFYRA
Procedure: An additional 90 μL is reserved in a HPLC glass vial as a measure of the total concentration.

[2] = biological target: T2, human collagen (acid soluble, extracted from placenta; type I) (human, UniProt P02452 162-1218; P08123 80-1119); assay: dried collagen assay, 5 uM each, 37 C, pH 7.4
T2 construct: mature; Tissue-extracted collagen; also called human collagen type I
T2 sequence (P02452 162-1218, chain 1 of 2): as the sequence (P02452 162-1218 limits assumed, chain 1 of 2) above
T2 sequence (P08123 80-1119, chain 2 of 2): as the sequence (P08123 80-1119 limits assumed, chain 2 of 2) above
Procedure: (§1) For the final assay, a 1:10 volume of 10×PBS (100 mM NaH₂PO₄, 1.5 M NaCl pH 7.4) is added to the collagen solution (final 1×PBS) and incubated at 37° C. for 2 hours.

[3] = biological target: T3, rat collagen (acid soluble, type I, rat tail) (rat, UniProt P02454 152-1207; P02466 86-1125); assay: dried collagen assay, 5 uM each, 37 C, pH 7.4
T3 construct: mature; Tissue-extracted collagen; also called rat collagen type I
T3 sequence (P02454 152-1207, chain 1 of 2): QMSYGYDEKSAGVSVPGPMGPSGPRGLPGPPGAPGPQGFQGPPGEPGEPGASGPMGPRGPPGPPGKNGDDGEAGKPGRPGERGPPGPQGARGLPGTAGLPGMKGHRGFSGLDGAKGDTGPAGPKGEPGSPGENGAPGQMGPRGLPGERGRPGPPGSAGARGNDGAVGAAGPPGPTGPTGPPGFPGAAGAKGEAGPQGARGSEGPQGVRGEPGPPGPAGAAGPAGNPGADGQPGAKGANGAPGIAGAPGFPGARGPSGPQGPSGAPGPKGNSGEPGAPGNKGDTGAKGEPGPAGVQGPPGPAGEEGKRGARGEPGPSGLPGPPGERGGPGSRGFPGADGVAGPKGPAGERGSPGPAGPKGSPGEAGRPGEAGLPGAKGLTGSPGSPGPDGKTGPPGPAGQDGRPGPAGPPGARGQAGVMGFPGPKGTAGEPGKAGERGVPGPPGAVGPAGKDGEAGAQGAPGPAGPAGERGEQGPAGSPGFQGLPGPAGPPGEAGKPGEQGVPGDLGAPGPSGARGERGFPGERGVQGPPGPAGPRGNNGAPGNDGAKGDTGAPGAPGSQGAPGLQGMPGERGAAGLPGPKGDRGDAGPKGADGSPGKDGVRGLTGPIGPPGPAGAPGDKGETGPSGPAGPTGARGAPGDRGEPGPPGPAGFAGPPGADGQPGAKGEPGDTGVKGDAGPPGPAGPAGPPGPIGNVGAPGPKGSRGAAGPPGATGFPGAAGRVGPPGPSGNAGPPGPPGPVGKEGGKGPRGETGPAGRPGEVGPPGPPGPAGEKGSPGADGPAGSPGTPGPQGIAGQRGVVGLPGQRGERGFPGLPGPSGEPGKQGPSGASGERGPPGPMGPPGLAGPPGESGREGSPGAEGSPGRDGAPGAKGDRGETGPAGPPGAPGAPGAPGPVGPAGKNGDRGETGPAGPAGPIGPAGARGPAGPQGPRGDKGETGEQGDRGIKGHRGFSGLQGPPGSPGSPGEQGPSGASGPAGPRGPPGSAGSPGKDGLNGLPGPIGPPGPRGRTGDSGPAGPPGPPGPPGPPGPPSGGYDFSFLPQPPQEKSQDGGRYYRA
T3 sequence (P02466 86-1125, chain 2 of 2): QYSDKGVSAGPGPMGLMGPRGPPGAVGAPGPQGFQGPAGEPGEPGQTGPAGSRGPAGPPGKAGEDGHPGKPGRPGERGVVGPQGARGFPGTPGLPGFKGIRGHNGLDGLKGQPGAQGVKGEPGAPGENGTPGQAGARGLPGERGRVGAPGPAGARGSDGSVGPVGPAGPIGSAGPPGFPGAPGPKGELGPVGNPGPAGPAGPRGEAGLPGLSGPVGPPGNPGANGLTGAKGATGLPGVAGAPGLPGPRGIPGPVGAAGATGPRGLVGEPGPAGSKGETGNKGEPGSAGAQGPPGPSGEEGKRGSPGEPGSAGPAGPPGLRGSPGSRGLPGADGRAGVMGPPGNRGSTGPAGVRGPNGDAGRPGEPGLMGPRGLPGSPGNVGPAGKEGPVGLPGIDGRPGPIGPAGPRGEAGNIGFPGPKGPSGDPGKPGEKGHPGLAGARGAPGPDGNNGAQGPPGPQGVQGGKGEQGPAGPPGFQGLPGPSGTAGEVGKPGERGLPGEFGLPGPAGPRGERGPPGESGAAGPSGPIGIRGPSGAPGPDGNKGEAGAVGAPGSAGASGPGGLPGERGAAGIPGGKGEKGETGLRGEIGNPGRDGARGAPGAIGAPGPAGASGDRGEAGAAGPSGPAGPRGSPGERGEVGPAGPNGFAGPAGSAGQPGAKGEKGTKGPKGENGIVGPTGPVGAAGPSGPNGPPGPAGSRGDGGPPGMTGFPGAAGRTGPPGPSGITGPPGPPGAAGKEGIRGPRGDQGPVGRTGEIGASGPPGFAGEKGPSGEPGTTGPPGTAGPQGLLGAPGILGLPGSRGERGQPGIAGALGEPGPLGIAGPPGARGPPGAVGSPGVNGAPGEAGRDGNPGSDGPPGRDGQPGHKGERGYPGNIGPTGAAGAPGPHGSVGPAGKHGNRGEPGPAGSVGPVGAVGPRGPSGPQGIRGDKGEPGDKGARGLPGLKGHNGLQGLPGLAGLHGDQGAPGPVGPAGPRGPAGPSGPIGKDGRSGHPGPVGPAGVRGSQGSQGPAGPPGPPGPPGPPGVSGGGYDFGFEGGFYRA
Procedure: as §1

human collagen type I [4] = biological target: T1, human collagen type I; assay: dried collagen assay, 5 uM peptide; remark: listed apart in the source
Procedure: (§2) For the final assay, a 1:10 volume of 10×PBS (100 mM NaH₂PO₄, 1.5 M NaCl pH 7.4) is added to the collagen solution (final 1×PBS) and incubated at 37° C. for 2 hours. The gelation is typically 90%.

rat collagen type I = biological target: T4, rat collagen type I (rat, UniProt P02454 152-1207; P02466 86-1125); assay: dried collagen assay, 5 uM peptide
T4 construct: rat tail, Upstate 08-115; gelled and dried in wells; also called dried rat collagen; rat collagen (acid soluble, type I, rat tail)
T4 sequence (P02454 152-1207, chain 1 of 2): as the sequence (P02454 152-1207, chain 1 of 2) above
T4 sequence (P02466 86-1125, chain 2 of 2): as the sequence (P02466 86-1125, chain 2 of 2) above
Procedure: as §2

Binder | Dried Human Collagen Binding (human collagen type I [1]) | further results
B1 | 5% | 
B2 |  | Human binding [2]: 22%; Rat binding [3]: 10%
B3 |  | % Collagen Binding, Dried Human (human collagen type I [4]): 5%; % Collagen Binding, Dried Rat (rat collagen type I): 12%
B4 |  | Human binding [2]: 64%
B5 |  | Rat binding [3]: 8%
B6 | 6% | 
B7 | 5% | 
B8 | 12% | 
B9 | 10% | 
B10 | 5% | 
B11 | 6% | 
B12 | 9% | 
